The data set has as its target PABP1;eIF4G1 (88-653) (Homo sapiens;Homo sapiens, UniProt P11940;Q04637 1-636;88-653, |). Kind of data set: EMSA.

Sequence of PABP1;eIF4G1 (88-653) (P11940 whole entry, chain 1 of 2): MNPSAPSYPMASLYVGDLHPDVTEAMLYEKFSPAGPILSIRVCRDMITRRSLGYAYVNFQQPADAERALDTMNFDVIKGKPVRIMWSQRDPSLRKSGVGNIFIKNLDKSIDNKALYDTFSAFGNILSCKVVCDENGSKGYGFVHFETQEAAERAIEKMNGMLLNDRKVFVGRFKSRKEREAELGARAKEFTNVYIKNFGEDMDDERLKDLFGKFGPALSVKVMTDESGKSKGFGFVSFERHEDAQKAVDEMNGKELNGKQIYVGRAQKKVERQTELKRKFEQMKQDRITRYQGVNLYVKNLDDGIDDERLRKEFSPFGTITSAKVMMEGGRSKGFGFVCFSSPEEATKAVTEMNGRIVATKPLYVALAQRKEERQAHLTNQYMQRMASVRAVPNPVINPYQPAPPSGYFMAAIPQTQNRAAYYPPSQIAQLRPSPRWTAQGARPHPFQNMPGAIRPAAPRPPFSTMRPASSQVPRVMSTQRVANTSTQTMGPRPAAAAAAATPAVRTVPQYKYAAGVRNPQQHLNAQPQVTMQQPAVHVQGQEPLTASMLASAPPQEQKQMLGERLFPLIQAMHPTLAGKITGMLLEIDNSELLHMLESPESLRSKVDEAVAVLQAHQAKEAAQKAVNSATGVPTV
Sequence of PABP1;eIF4G1 (88-653) (Q04637 88-653, chain 2 of 2): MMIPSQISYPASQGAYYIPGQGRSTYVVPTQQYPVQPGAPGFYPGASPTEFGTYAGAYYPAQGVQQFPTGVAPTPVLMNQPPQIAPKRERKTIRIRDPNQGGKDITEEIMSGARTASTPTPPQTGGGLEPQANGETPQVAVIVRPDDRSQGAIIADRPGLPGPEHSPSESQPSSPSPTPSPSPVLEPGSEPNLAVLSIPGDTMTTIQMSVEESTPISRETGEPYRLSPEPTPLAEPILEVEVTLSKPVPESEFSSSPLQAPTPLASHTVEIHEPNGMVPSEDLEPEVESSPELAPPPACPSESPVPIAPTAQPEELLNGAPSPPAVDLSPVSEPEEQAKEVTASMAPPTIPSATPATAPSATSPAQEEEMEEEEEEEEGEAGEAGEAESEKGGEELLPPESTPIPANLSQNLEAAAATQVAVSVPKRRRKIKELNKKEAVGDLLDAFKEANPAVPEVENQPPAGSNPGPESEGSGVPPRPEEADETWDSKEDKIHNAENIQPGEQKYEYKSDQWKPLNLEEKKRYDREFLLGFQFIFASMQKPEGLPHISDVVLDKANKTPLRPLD

As to AAAAAAAAAAAAAAAAAA (ssRNA) [Poly(A)18], the binding result is recorded as “binds”.

The values above are taken from article PMC8897273 (Journal of molecular biology, 2022).
